Test results taken from US20220267463A1 (Hoffmann-La Roche, published 2022).

T1: carcinoembryonic antigen (CEA) on MKN-45 cells (human, UniProt P06731 35-685)
T1 construct: whole, on cells; also called CEACAM5; Carcinoembryonic antigen-related cell adhesion molecule 5
T1 sequence (looked up): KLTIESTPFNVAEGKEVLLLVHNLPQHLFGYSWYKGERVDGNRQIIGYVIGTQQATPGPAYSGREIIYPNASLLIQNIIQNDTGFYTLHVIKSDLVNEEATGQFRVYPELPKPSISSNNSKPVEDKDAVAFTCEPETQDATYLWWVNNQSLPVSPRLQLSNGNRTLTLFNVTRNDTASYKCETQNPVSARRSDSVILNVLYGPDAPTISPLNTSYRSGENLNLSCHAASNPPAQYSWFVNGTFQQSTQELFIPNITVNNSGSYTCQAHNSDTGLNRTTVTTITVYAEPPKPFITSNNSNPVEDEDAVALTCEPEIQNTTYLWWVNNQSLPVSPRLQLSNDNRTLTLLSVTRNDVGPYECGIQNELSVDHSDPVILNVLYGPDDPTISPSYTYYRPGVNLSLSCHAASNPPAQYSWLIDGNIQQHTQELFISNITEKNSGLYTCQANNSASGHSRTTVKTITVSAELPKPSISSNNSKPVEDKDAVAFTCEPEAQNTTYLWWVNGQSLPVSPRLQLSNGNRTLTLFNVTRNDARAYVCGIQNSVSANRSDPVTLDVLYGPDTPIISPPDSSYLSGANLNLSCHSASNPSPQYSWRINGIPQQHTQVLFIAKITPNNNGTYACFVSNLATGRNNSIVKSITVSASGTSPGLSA


Experiments:
[1] = target: T1, carcinoembryonic antigen (CEA) on …; assay: flow cytometry on MKN45 cells, hemibody mixed 1:1 with human ISO control, detection with anti-human IgG(H+L) (title: A488; legend box: FITC)
Description: To assess the functionality of the split antibodies or hemibodies, MKN-45 cells were detached from the culture vessel using accutase at 37° C. for 10 minutes. Subsequently, the cells were washed twice in PBS, and seeded into 96 well v-bottom plates to a final density of 4×10⁶ cells/well.
Subsequently, the cells were incubated for 1 h on ice and washed twice in PBS. The cell pellet was resuspended and 40 μl/well of detection reagent was added, either <human IgG(H+L)>FITC, (10 μg/ml) or Pb_Dotam_FITC 1:100=>(10 μg/ml) in PBS/5% FCS. After 60 min incubation on ice, the cells were washed twice in PBS and resuspended in 200 μl PBS/5% FCS for measurement of FITC fluorescence using a FACS canto.

[2] = target: T1, carcinoembryonic antigen (CEA) on …; assay: flow cytometry on MKN-45 cells, detection with anti-huIgG(H+L)-Alexa488
Description: MKN-45 cells were detached from the culture bottle using Trypsin and were counted using a Casy cell counter. After pelleting at 4° C., 300 g the cells were resuspended in FACS Buffer (2.5% FCS in PBS), adjusted to 2.0E+06 cells/mL dispensed to 96-well PP V-bottom-Platte (25 μL/well=5.0E+04 Zellen/well).
The CEA specific SPLIT antibodies (P1AF0712 or P1AF0713 respectively) were adjusted to 40 μg/mL in FACS buffer, resulting in a final concentration of 10 μg/mL. […] The cells were then washed twice in FACS buffer and resuspended in 70 μl/well FACS buffer for measurement using a FACS Canto (BD, Pharmingen). […] Both antibodies were added to the cells either separated followed by buffer or combined and incubated at 4° C. for 1 h. The cells were then washed twice in FACS buffer. After washing, the cells were resuspended in 50 μL FACS-buffer containing secondary antibody (<huIgG(H+L)>-Alexa488, c=10 μg/mL) and incubated 1 h at 4° C.

| EC50 (read off the curve) [1] [µg/mL] | EC50 [2] [µg/mL] | Binder |
| --- | --- | --- |
| ~1 | – | PRIT Split Antibody with DOTAM-VH-P1AD8749 (antibody, human IgG1, kappa, L234A L235A, Full length anti-CEA (CH1A1A) human IgG1 with knob-into-hole and P329G LALA; one heavy chain carries the DOTAM VH at its C-terminus; No DOTAM VL; Bivalent for CEA; also called CEA-split-DOTAM-VH; P1_B) heavy 1: QVQLVQSGAEVKKPGASVKVSCKASGYTFTEFGMNWVRQAPGQGLEWMGWINTKTGEATYVEEFKGRVTFTTDTSTSTAYMELRSLRSDDTAVYYCARWDFAYYVEAMDYWGQGTTVTVSSASTKGPSVFPLAPSSKSTSGGTAALGCLVKDYFPEPVTVSWNSGALTSGVHTFPAVLQSSGLYSLSSVVTVPSSSLGTQTYICNVNHKPSNTKVDKKVEPKSCDKTHTCPPCPAPEAAGGPSVFLFPPKPKDTLMISRTPEVTCVVVDVSHEDPEVKFNWYVDGVEVHNAKTKPREEQYNSTYRVVSVLTVLHQDWLNGKEYKCKVSNKALGAPIEKTISKAKGQPREPQVCTLPPSRDELTKNQVSLSCAVKGFYPSDIAVEWESNGQPENNYKTTPPVLDSDGSFFLVSKLTVDKSRWQQGNVFSCSVMHEALHNHYTQKSLSLSPG heavy 2: not shown light: DIQMTQSPSSLSASVGDRVTITCKASAAVGTYVAWYQQKPGKAPKLLIYSASYRKRGVPSRFSGSGSGTDFTLTISSLQPEDFATYYCHQYYTYPLFTFGQGTKLEIKRTVAAPSVFIFPPSDEQLKSGTASVVCLLNNFYPREAKVQWKVDNALQSGNSQESVTEQDSKDSTYSLSSTLTLSKADYEKHKVYACEVTHQGLSSPVTKSFNRGEC |
| – | 2.3 | P1AF0713 (antibody, human IgG1, kappa, L234A L235A, also called CEA specific SPLIT antibody (DOTA-VH-AST); P6_B) heavy 1: QVQLVQSGAEVKKPGASVKVSCKASGYTFTEFGMNWVRQAPGQGLEWMGWINTKTGEATYVEEFKGRVTFTTDTSTSTAYMELRSLRSDDTAVYYCARWDFAYYVEAMDYWGQGTTVTVSSASTKGPSVFPLAPSSKSTSGGTAALGCLVKDYFPEPVTVSWNSGALTSGVHTFPAVLQSSGLYSLSSVVTVPSSSLGTQTYICNVNHKPSNTKVDKKVEPKSCDKTHTCPPCPAPEAAGGPSVFLFPPKPKDTLMISRTPEVTCVVVDVSHEDPEVKFNWYVDGVEVHNAKTKPREEQYNSTYRVVSVLTVLHQDWLNGKEYKCKVSNKALGAPIEKTISKAKGQPREPQVCTLPPSRDELTKNQVSLSCAVKGFYPSDIAVEWESNGQPENNYKTTPPVLDSDGSFFLVSKLTVDKSRWQQGNVFSCSVMHEALHNHYTQKSLSLSPG heavy 2: not shown light: DIQMTQSPSSLSASVGDRVTITCKASAAVGTYVAWYQQKPGKAPKLLIYSASYRKRGVPSRFSGSGSGTDFTLTISSLQPEDFATYYCHQYYTYPLFTFGQGTKLEIKRTVAAPSVFIFPPSDEQLKSGTASVVCLLNNFYPREAKVQWKVDNALQSGNSQESVTEQDSKDSTYSLSSTLTLSKADYEKHKVYACEVTHQGLSSPVTKSFNRGEC |
| – | 2.7 | P1AF0712 (antibody, human IgG1, kappa, L234A L235A, also called CEA specific SPLIT antibody (DOTA-VL); P6_A) heavy 1: not shown heavy 2: QVQLVQSGAEVKKPGASVKVSCKASGYTFTEFGMNWVRQAPGQGLEWMGWINTKTGEATYVEEFKGRVTFTTDTSTSTAYMELRSLRSDDTAVYYCARWDFAYYVEAMDYWGQGTTVTVSSASTKGPSVFPLAPSSKSTSGGTAALGCLVKDYFPEPVTVSWNSGALTSGVHTFPAVLQSSGLYSLSSVVTVPSSSLGTQTYICNVNHKPSNTKVDKKVEPKSCDKTHTCPPCPAPEAAGGPSVFLFPPKPKDTLMISRTPEVTCVVVDVSHEDPEVKFNWYVDGVEVHNAKTKPREEQYNSTYRVVSVLTVLHQDWLNGKEYKCKVSNKALGAPIEKTISKAKGQPREPQVCTLPPSRDELTKNQVSLSCAVKGFYPSDIAVEWESNGQPENNYKTTPPVLDSDGSFFLVSKLTVDKSRWQQGNVFSCSVMHEALHNHYTQKSLSLSPGGGGGSGGGGSGGGGSGGGGSQAVVIQESALTTPPGETVTLTCGSSTGAVTASNYANWVQEKPDHLFTGLIGGHNNRPPGVPARFSGSLIGDKAALTIAGTQTEDEAIYFCALWYSDHWVIGGGTKLTVL light: DIQMTQSPSSLSASVGDRVTITCKASAAVGTYVAWYQQKPGKAPKLLIYSASYRKRGVPSRFSGSGSGTDFTLTISSLQPEDFATYYCHQYYTYPLFTFGQGTKLEIKRTVAAPSVFIFPPSDEQLKSGTASVVCLLNNFYPREAKVQWKVDNALQSGNSQESVTEQDSKDSTYSLSSTLTLSKADYEKHKVYACEVTHQGLSSPVTKSFNRGEC |
